Source: article PMC4507011
Values belong to the molecule of their own block, whether it stands above or below them.

Experiments:
[1] = biological target: dehydrogenase domain (DH) of MtCDH variant N292S (Myriococcum thermophilum)
[2] = biological target: dehydrogenase domain (DH) of MtCDH variant Y619Q (Myriococcum thermophilum)
[3] = biological target: dehydrogenase domain (DH) of MtCDH variant S298Q (Myriococcum thermophilum)
[4] = biological target: dehydrogenase domain (DH) of MtCDH variant M309A (Myriococcum thermophilum)
[5] = biological target: dehydrogenase domain (DH) of MtCDH variant N700S (Myriococcum thermophilum)
[6] = biological target: dehydrogenase domain (DH) of Myriococcum thermophilum cellobiose dehydrogenase, wild type (Myriococcum thermophilum)
[7] = biological target: dehydrogenase domain (DH) of MtCDH variant R698S (Myriococcum thermophilum)
[8] = biological target: dehydrogenase domain (DH) of MtCDH variant W295A (Myriococcum thermophilum)
[9] = biological target: dehydrogenase domain (DH) of MtCDH variant M309R (Myriococcum thermophilum)
[10] = biological target: dehydrogenase domain (DH) of MtCDH variant Y549F (Myriococcum thermophilum)
[11] = biological target: T1, Neurospora crassa lytic polysaccharide monooxygenase NcLPMO9F (Neurospora crassa) (UniProt Q1K4Q1)
T1 sequence (chain, non-glycosylated; N-terminal histidine not methylated): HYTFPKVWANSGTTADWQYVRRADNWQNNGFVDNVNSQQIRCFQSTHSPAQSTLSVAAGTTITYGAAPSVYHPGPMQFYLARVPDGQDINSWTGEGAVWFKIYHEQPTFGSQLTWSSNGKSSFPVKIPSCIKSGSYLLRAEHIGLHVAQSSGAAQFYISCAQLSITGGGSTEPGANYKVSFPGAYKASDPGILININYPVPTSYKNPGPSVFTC

[12] = biological target: T1, Neurospora crassa lytic polysaccharide monooxygenase NcLPMO9F (Neurospora crassa); remark: listed apart in the source

haem b reduction rate kobs (interdomain electron transfer) of 5 μM full-length MtCDH N292S with 25 mM cellobiose, stopped flow at 563 nm, 30 °C, pH 5.0 [1]: 0.95 s⁻¹ | haem b reduction rate kobs (interdomain electron transfer) of 5 μM full-length MtCDH Y619Q with 25 mM cellobiose, stopped flow at 563 nm, 30 °C, pH 5.0 [2]: 0.38 s⁻¹ | haem b reduction rate kobs (interdomain electron transfer) of 5 μM full-length MtCDH S298Q with 25 mM cellobiose, stopped flow at 563 nm, 30 °C, pH 5.0 [3]: 0.09 s⁻¹ | haem b reduction rate kobs (interdomain electron transfer) of 5 μM full-length MtCDH M309A with 25 mM cellobiose, stopped flow at 563 nm, 30 °C, pH 5.0 [4]: 0.056 s⁻¹ | haem b reduction rate kobs (interdomain electron transfer) of 5 μM full-length MtCDH N700S with 25 mM cellobiose, stopped flow at 563 nm, 30 °C, pH 5.0 [5]: 1.37 s⁻¹ | haem b reduction rate kobs (flavin-to-haem interdomain electron transfer) of 5 μM full-length MtCDH wild type with 25 mM cellobiose, stopped flow at 563 nm, 30 °C, 50 mM sodium citrate pH 5.0 [6]: 0.76 s⁻¹ | haem b reduction rate kobs (interdomain electron transfer) of 5 μM full-length MtCDH R698S with 25 mM cellobiose, stopped flow at 563 nm, 30 °C, pH 5.0 [7]: 0.011 s⁻¹ | haem b reduction rate kobs (interdomain electron transfer) of 5 μM full-length MtCDH W295A with 25 mM cellobiose, stopped flow at 563 nm, 30 °C, pH 5.0 [8]: 0.86 s⁻¹ | haem b reduction rate kobs (interdomain electron transfer) of 5 μM full-length MtCDH M309R with 25 mM cellobiose, stopped flow at 563 nm, 30 °C, pH 5.0 [9]: 0.088 s⁻¹ | haem b reduction rate kobs (interdomain electron transfer) of 5 μM full-length MtCDH Y549F with 25 mM cellobiose, stopped flow at 563 nm, 30 °C, pH 5.0 [10]: 0.76 s⁻¹
Molecule: cytochrome domain (CYT) of Myriococcum thermophilum cellobiose dehydrogenase (domain or fragment)

haem b re-oxidation rate (kobs) of reduced NcCYT (4 μM) mixed with NcLPMO9F (20 μM), stopped flow at 563 nm, 30 °C, 50 mM sodium citrate pH 5.0 (re-oxidation by oxygen alone 0.0007 s^−1) [11]: 67.2 s⁻¹
B1: cytochrome domain of Neurospora crassa cellobiose dehydrogenase IIA (separate fragment) (domain or fragment)
chain: QTAPKTFTHPDTGIVFNTWSASDSQTKGGFTVGMALPSNALTTDATEFIGYLECSSAKNGANSGWCGVSLRGAMTNNLLITAWPSDGEVYTNLMFATGYAMPKNYAGDAKITQIASSVNATHFTLVFRCQNCLSWDQDGVTGGISTSNKGAQLGWVQAFPSPGNPTCPTQITLSQHDNGMGQWGAAFDSNIANPSYTAWAAKATKTVTGTCSGPVTTSIAATPVPTGVSFDYIVVGGGAGGIPVADKLSESGKSVLLIEKGFASTGEHGGTLKPEWLNNTSLTRFDVPGLCNQIWKDSDGIACSDTDQMAGCVLGGGTAINAGLWYKPYTKDWDYLFPSGWKGSDIAGATSRALSRIPGTTTPSQDGKRYLQQGFEVLANGLKASGWKEVDSLKDSEQKNRTFSHTSYMYINGERGGPLATYLVSAKKRSNFKLWLNTAVKRVIREGGHITGVEVEAFRNGGYSGIIPVTNTTGRVVLSAGTFGSAKILLRSGIGPKDQLEVVKASADGPTMVSNSSWIDLPVGHNLVDHTNTDTVIQHNNVTFYDFYKAWDNPNTTDMNLYLNGRSGIFAQAAPNIGPLFWEEITGADGIVRQLHWTARVEGSFETPDGYAMTMSQYLGRGATSRGRMTLSPTLNTVVSDLPYLKDPNDKAAVVQGIVNLQKALANVKGLTWAYPSANQTAADFVDKQPVTYQSRRSNHWMGTNKMGTDDGRSGGTAVVDTNTRVYGTDNLYVVDASIFPGVPTTNPTAYIVVAAEHAAAKILAQPANEAVPKWGWCGGPTYTGSQTCQAPYKCEKQNDWYWQCV

re-oxidation rate of the FAD cofactor of NcDH (10 μM) in the presence of 50 μM NcLPMO9F, stopped flow at 450 nm (0.0444 s^–1 without LPMO): unchanged, no electron transfer [12]: 0.0442 s⁻¹
B2: dehydrogenase domain of Neurospora crassa cellobiose dehydrogenase IIA (separate fragment) (domain or fragment)
chain: QTAPKTFTHPDTGIVFNTWSASDSQTKGGFTVGMALPSNALTTDATEFIGYLECSSAKNGANSGWCGVSLRGAMTNNLLITAWPSDGEVYTNLMFATGYAMPKNYAGDAKITQIASSVNATHFTLVFRCQNCLSWDQDGVTGGISTSNKGAQLGWVQAFPSPGNPTCPTQITLSQHDNGMGQWGAAFDSNIANPSYTAWAAKATKTVTGTCSGPVTTSIAATPVPTGVSFDYIVVGGGAGGIPVADKLSESGKSVLLIEKGFASTGEHGGTLKPEWLNNTSLTRFDVPGLCNQIWKDSDGIACSDTDQMAGCVLGGGTAINAGLWYKPYTKDWDYLFPSGWKGSDIAGATSRALSRIPGTTTPSQDGKRYLQQGFEVLANGLKASGWKEVDSLKDSEQKNRTFSHTSYMYINGERGGPLATYLVSAKKRSNFKLWLNTAVKRVIREGGHITGVEVEAFRNGGYSGIIPVTNTTGRVVLSAGTFGSAKILLRSGIGPKDQLEVVKASADGPTMVSNSSWIDLPVGHNLVDHTNTDTVIQHNNVTFYDFYKAWDNPNTTDMNLYLNGRSGIFAQAAPNIGPLFWEEITGADGIVRQLHWTARVEGSFETPDGYAMTMSQYLGRGATSRGRMTLSPTLNTVVSDLPYLKDPNDKAAVVQGIVNLQKALANVKGLTWAYPSANQTAADFVDKQPVTYQSRRSNHWMGTNKMGTDDGRSGGTAVVDTNTRVYGTDNLYVVDASIFPGVPTTNPTAYIVVAAEHAAAKILAQPANEAVPKWGWCGGPTYTGSQTCQAPYKCEKQNDWYWQCV
